Measured values from patent US6709650B1, “Spray-dried microparticles and their use as therapeutic vehicles” (Elam Drug Delivery Limited, priority 1991, dated 2004).

Tests used:
[1] = soluble HSA microcapsules dissolved in water or extracted; TLC or HPLC
Experimental: The beclomethasone was extracted from the microcapsules by the precipitation of the HSA in 10% TCA, and the supernatant was extracted into ethanol. The ethanol extract was analysed using HPLC, at a wavelength 242 nm.
The soluble microcapsules thus made were sampled, characterised and analysed for drug content.

[2] = Structural integrity of protein after spray-drying (gel filtration, tryptic peptide mapping, reverse phase, capillary electrophoresis); type: physicochemical; conditions: microparticles dissolved in aqueous medium, compared with original material
Experimental: Under the conditions described, with a nozzle pressure of 7.5 bar, microparticles were produced with a particle size of 4.7 μm. These soluble microparticles were smooth and spherical with less than 1% of the particles over a particle size of 6 μm. The microparticles were dissolved in aqueous medium and the molecular weight of the HSA determined by gel filtration chromatography. The resultant chromatograms for the original and spray-dried HSA are shown (FIG. 1).
(§1) Alpha-1 antitrypsin derived from human serum was spray-dried under conditions similar to Example 1 with an inlet temperature of 150° C. and an outlet temperature of 80° C. In all other respects the conditions for drying were the same as Example 1. […] The microparticles were dissolved in aqueous medium and analysed for retention of protein structure and normal trypsin inhibitory activity, then compared to the original freeze dried starting material.

trypsin = target: T1, trypsin (Bos taurus, UniProt P00760); test: Trypsin inhibitory activity of spray-dried alpha-1 antitrypsin vs freeze dried starting material; type: biochemical; conditions: within the experimental error
T1 construct: gene PRSS1
T1 sequence (P00760 24-246): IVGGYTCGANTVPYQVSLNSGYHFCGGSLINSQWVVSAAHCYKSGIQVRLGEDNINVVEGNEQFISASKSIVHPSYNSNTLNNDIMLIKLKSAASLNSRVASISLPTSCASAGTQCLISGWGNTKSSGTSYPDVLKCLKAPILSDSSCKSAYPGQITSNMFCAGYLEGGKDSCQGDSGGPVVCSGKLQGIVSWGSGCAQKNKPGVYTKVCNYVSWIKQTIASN
Experimental: as §1

| retention of inhibitory activity after spray-drying (trypsin) | Compound | state of the active compound on dissolution of the microcapsules [1] | structural change of the protein after spray-drying [2] |
| --- | --- | --- | --- |
|  | C[C@H]1C[C@H]2[C@@H]3CCC4=CC(=O)C=C[C@]4(C)[C@@]3(Cl)[C@@H](O)C[C@]2(C)[C@@]1(O)C(=O)CO [beclomethasone] | majority of the active compound was in the free state |  |
| full retention of inhibitory activity | Alpha-1 antitrypsin: Alpha-1 antitrypsin derived from human serum, spray-dried to soluble microparticles of mean size 4.5 μm |  | no significant structural changes |
